Tests used:
[1] = substrate: CC(C)[C@H](N)C(=O)N1CCC[C@H]1C(=O)O; experiment: colorimetric ninhydrin prolidase assay; type: biochemical, Pyrococcus horikoshii; conditions: 1.2 mM CoCl2, 50 mM MOPS pH 7.0, 100°C, hydrochloride salt
[2] = molecular target: the molecule itself; experiment: AUC; sedimentation equilibrium, 20°C, 13 K rpm, three protein concentrations between 0.93 and 0.31 mg/mL, 20 mM Tris pH 8.0, 100 mM NaCl; monomer/dimer

B1: putative dipeptidase (Phdpd) from Pyrococcus horikoshii OT3 (enzyme, UniProt O58691 1-356, looked up)
chain: MRLEKFIHLLGERGFDGALISPGTNLYYLTGLRLHEVGERLAILAVSAEGDYRFLAPSLYENVVNNFPATFWHDGENPYAKLREILEELGISKGRILIEDTMRADWLIGIMKLGKFTFQPLSSLIKELRMIKDKEEVKMMEHASRIADKVFEEILTWDLIGMKERELALKIELLIRELSDGIAFEPIVASGENAANPHHEPGERKIRKGDIIILDYGARWKGYCSDITRTIGLGELDERLVKIYEVVKDAQESAFKAVREGIKAKDVDSRAREVISKAGYGEYFIHRTGHGLGLDVHEEPYIGPDGEVILKNGMTFTIEPGIYVPGLGGVRIEDDIVVDEGKGRRLTKAERELIIL
notes: putative dipeptidase / X-Pro dipeptidase (prolidase), Project ID PH0974, Pyrococcus horikoshii OT3; No tag is mentioned; the plasmid was made by the 'super-rare-cutter system' (manuscript in preparation); A selenomethionine-labelled crystal was used for MAD phasing only; also called PH0974; X-Pro dipeptidase (prolidase) of Project ID PH0974; source: E. coli BL21-CodonPlus (DE3)-RIL, purified …
Km [1]: 5.0 mM | kcat [1]: 541 s⁻¹ | stoichiometry N [2]: 2

Source: article PMC2814137, “Crystal Structural and Functional Analysis of the Putative Dipeptidase from Pyrococcus horikoshii OT3” (Journal of Biophysics, 2009)
